In the RNAGym collection of RNA variant scans (doi:10.1073/pnas.2313332121):
Variants at the floor of the assay were thinned out.

B1: TPR 5TU (parent)
chain: GGAUCUUCUCGAUCUAACAAAAAAGACAAAUCUGCCACAAAGCUUGAGAGCAUCUUCGGAUGCAGAGGCGGCAGCCUUCGGUGGCGCGAUAGCGCCAACGUUCUCAACUAUGACACGCAAAACGCGUGCUCCGUUGAAUGGAGUUUAUCAUG

Variants of: B1
Test: polymerase ribozyme fitness, log enrichment relative to wild type (log ratio); higher = more active; in vitro selection for triplet polymerase activity
Summary of the method: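 Only genotypes with ≥10 input reads and ≥1 read per output were kept after Illumina sequencing of input and output libraries. These libraries were PCR-built, transcribed mutants of each subunit of a heterodimeric triplet polymerase ribozyme, each put through one triplicate in vitro selection round with frozen incubation at −7 °C, gel excision of extended constructs, streptavidin-bead capture and RT-PCR. Fitness is a logarithmic ratio of genotype enrichment to wild-type enrichment, from inverse-variance-weighted replicate averages, with the logarithm in base 2.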

Variant	polymerase ribozyme fitness (log ratio)
U45C	0.188
U45G	-0.42
U45A	-2.1
C43U U45G C131A G136U	≤ -4.2
G46A G59A	0.222
G42A G81U A91C G92U C95G A107C C108A C114G G141A	≤ -4.2
G42U G68C G94U	≤ -4.2
U45C C57A G74C G80U U101A U139A G143C	≤ -4.2
G46A G88U C132U	≤ -4.2
C43A C54U	≤ -4.2
A41U C54U	-0.75
G42U A73C C95U A98C U144A	≤ -4.2
G46C C75U C93G U144A	≤ -4.2
G46A U144G	0.469
G42A G88A C96A C118G G126U	≤ -4.2
U44A G50A C93G	≤ -4.2
G42A C54G A91U	≤ -4.2
U44A A47C A52G C79U C85U C118U	≤ -4.2
C43U G80U C93G C99G	≤ -4.2
U45A A66U C76U C85G C129A	≤ -4.2
U45G G59A G84A A89G C118U	-3.18
A41U G141A A150G	-4.16
A41U G81A	-0.718
G42A G59A G80A	≤ -4.2

Variant	polymerase ribozyme fitness (log ratio)
A41U G74U C75A A91G U145A U151G	≤ -4.2
G46A G94C	-1.05
G42U G58A G70U A73G G84U C85U U144G A150U	≤ -4.2
A41U G58A G81C	-0.606
G42A G71U G126A A138C	≤ -4.2
C43G U45G U134C	≤ -4.2
U45A G81C C96G	-3.93
A41U C57G A120G	-2.19
C43U C99G	≤ -4.2
U44G U56A	-3.19
U44A C103G A115U	≤ -4.2
G46A G62U	-4.09
U44A G65C A89U	≤ -4.2
G42C	-3.77
G42A	-3.47
G42U	-3.47
G42U C43G G86U G94U U144A	≤ -4.2
A41U C95U C99A U146G	-2.29
G42U C54G C57U G65A G92C A110C	≤ -4.2
G46A C93U C129G	≤ -4.2
C43U A52C G83U A91U	≤ -4.2
G42U G62U C63A C69U C99A C103G C108A	≤ -4.2
G42C C72U G92C C96U	≤ -4.2
G46A C75U C85A A106G	≤ -4.2

Variant	polymerase ribozyme fitness (log ratio)
C43G A52U A142C U144A	≤ -4.2
G42C G143C	≤ -4.2
G42U C93A C96U	≤ -4.2
A41U C99A A107U G117A A122U G128A	≤ -4.2
G42U C76A C93U C96U U145C	≤ -4.2
G46C A47C C72U C103A	≤ -4.2
C43U G88A G94A A122G	≤ -4.2
U45A A52U C85A U139G	≤ -4.2
U45A G68C U82G G83C G94A C118U	≤ -4.2
U45A A66G G80A A142G	≤ -4.2
G42C U111A	≤ -4.2
G42A G83C C96G C105U A110G U139C	≤ -4.2
G42C G46C G70C C95G U101G C129A C132G	≤ -4.2
A41U G86A A89U C114U	-4.16
U44A G50A G65C C76G U90G	≤ -4.2
G42A C69G C72G C96U G143A	≤ -4.2
A41U C85A	-3.35
G42C C87U A113C C118G G141C	≤ -4.2
A41U U56A	-0.813
G42U C76A G81A G124C	≤ -4.2
U45A C96G A121U	-2.93
G46C A98U	-1.22
A41U C72G C76U A119G U134G A142U	≤ -4.2
G46A G70U C85G U130A	≤ -4.2

Variant	polymerase ribozyme fitness (log ratio)
A41G U56A G58C C87A C108G G143C	≤ -4.2
U45G U61A	-2.35
U45A C72G C79U G83U U104G	≤ -4.2
U45G C93U G141C	≤ -4.2
C43U C116G	-3.65
C43U C51U U53G A73G C96G G126U	≤ -4.2
C43G G50A C85U	≤ -4.2
A41U G42C C76G	≤ -4.2
G46C A91G	-3.27
G42C G59A C93G A106C	≤ -4.2
U45A A73U C79A C93U A121G	≤ -4.2
U45A A52C A73C A91U U101C	≤ -4.2
U44G G65A G68A	≤ -4.2
G42A A52C G94U A97G U144A	≤ -4.2
A41U A52C C76U	-3.25
U44A U82G	≤ -4.2
G42U A91U	≤ -4.2
G42C U127G A150G	≤ -4.2
C43U A49G G84C G140U U146G	≤ -4.2
G42A A66U A89G U145A	≤ -4.2
G42C U61A A64G A107G U130C	≤ -4.2
U45A U56C C57A C63G C87G G88C	≤ -4.2
C43G A64C A73C C87A C105G	≤ -4.2
G46A G71C U78A	≤ -4.2

Variant	polymerase ribozyme fitness (log ratio)
U45C G50U C57G C87G A137C C149A	≤ -4.2
U44C U146C	-3.77
C43U U53A	≤ -4.2
U44A C85G U109G U146C	≤ -4.2
A41G U61A A113U	-2.93
A41U C54A G92A	≤ -4.2
U45A C118U A120C	-2.58
U45G U56A G88A C93G A119G G143U	≤ -4.2
G46C C118G	-1.24
C43G C54A C93U A107G	≤ -4.2
U44A C57A C93A G133C	≤ -4.2
U44A C85U C87A G117U C149U	≤ -4.2
C43G C125A U146A U148A	≤ -4.2
G42C U45A C79A G86A U104C A107C	≤ -4.2
U45A C54U	-2.52
U45A C54A	≤ -4.2
C43G G83A	≤ -4.2
C43U	-4.01
C43G	-4.17
C43A	-4
G42C U56G G68U U78A C93U A142C	≤ -4.2
A41U A89G U90C G94A A121C	≤ -4.2
U45A A60G A66C G68C C69U	≤ -4.2
G46C G48A C76G U78G G83A G143C	-4.2

Variant	polymerase ribozyme fitness (log ratio)
G46A C54G	-1.88
G42A G50C	≤ -4.2
U45A A60C C79U C99U U101G G136U	≤ -4.2
U44C C51U G92U C96G U102G G128C	≤ -4.2
U45G A49C G62C G94C C118G	≤ -4.2
C43A A52G G83A G124U G143A	≤ -4.2
G42A U82G A91G G133A U134C G140C	≤ -4.2
G46C C87A G94C U101A U134A G141U	≤ -4.2
C43A U55A G92A	≤ -4.2
U44A C76U C87A C105A A107G U127A U145C G152U	≤ -4.2
G42U C116A U135G	≤ -4.2
G42A G80C G86C	≤ -4.2
G42A C72U A91U	≤ -4.2
A41U U55A A66G C93U A110G G140A	≤ -4.2
A41U G92U G141A	-1.22
U44A C93G A113G U134A	≤ -4.2
G42U A52C A66G C76A U90G C95A A106C C108G	≤ -4.2
U44C U61C A64G C85U C87G C95A C96G C99A G136A	≤ -4.2
U44A C54U	-3.59
A41U A47C G59U U61A A66U C85G A107C U148C	≤ -4.2
G42U G65C G70A C76A G86U U139G A142U	≤ -4.2
G42C A49C A52C C75U C85U A91U	≤ -4.2
G46A U53G C57U G86A A115C	≤ -4.2
G42A G59U	-3.95

Variant	polymerase ribozyme fitness (log ratio)
A41G U56G G58U G81A G84A C116U C149U	-1.86
A41U A52G C96A	-3.24
G46C C54A C96G C103G G141U	≤ -4.2
U45A G86A	-3.54
U44A U82C C85A	≤ -4.2
C43A C63U C69A G94A C123A U134A G141C	≤ -4.2
U44A U53G	≤ -4.2
U44G U55A C93A A120G	≤ -4.2
U45A G74A C105U	≤ -4.2
U45A U56A G65C A91U G92A U130C A147U	≤ -4.2
G42A C76U G81U G83C A110U C114G	≤ -4.2
U45A C118A	-3.79
G42U G48A U55A C118A A137G	≤ -4.2
A41U U102C U146G	-3.93
C43A G92C	≤ -4.2
U45A A97U	-2.84
A41U A60U G84A C95G C105U A110U	≤ -4.2
A41U A47U C99G A107U	≤ -4.2
G42A G46U U55G C72G	≤ -4.2
C43U C51A G86U G126A A137C	≤ -4.2
U45A G136C	≤ -4.2
U44A C85A C96G	≤ -4.2
A41U U53G U56C U146C U151G	≤ -4.2
